This data set can be described thus: label from the status in PepcDB records.
As to “PQPKIGILLANLGTPDNYDYWSMRRYLNEFLSDKRVIDYPAWKWQPLLQILILSKRPFSSGANYKLIWNHDKGESPLMTITKDQTAAIAAEIRSLYGNRVMVDFCMRYGNPSTESRVRAMVEAGCEKILFFPLYPHYAGATSATANDEFFRAMMKEKRQPAVRTVPEYYDNPLYIDALAQSVERAYAQLDHRPDVLVASYHGMPKRYLMAGD”, the protein production entry is reported as “failed”.
To “PSHSLQAPEVRFSKEMECLQAMGFVNYNANLQALIATDGDTNAAIYKLKSSQGF” belongs “not failed”; to “PTEFLYTSKIAAISWAATGGRQQRVYFQDLNGKIREAQRGGDNPWTGGSSQNVIGEAKLFSPLAAVTWKSAQGIQIRVYCVNKDNILSEFVYDGSKWITGQLGSVGVKVGSNSKLAALQWGGSESAPPNIRVYYQKSNGSGSSIHEYVWSGKWTAGASFGSTVPGTGIGATAIGPGRLRIYYQATDNKIREHCWDSNSWYVGGFSASASAGVSIAAISWGSTPNIRVYWQKGREELYEAAYGGSWNTPGQIKDASRPTPSLPDTFIAANSSGNIDISVFFQASGVSLQQWQWISGKGWSIGAVVPTGTPAGW”, “not failed”.
As to “PTLYEKIQQANEEAVTRIIQSKPILVGFDKAINVMPDMTETTILHAGPPITYENMCGPMKGAVQGALVFEGLAKDLADADRVARSGAITFSPCHEHDAVGSMAGVTSPNMYVHIIKNETYGNTAFTNLSEQLAKVLRFGANDQSVVDRLIWMRDVLGPLLHDAMTFCPEGIDLRLMLSQALHMGDECHNRNVAGSTLLVQALTPYMVQTDFSREQLKEVFEFLGSSDYFSGPTWMGAAKCALDAGHNVENSTIVTTMCRNGVEFGIRVSGIGGNHWFTGPAQRVIGPMFAGYTQEDAGLDMGDSAITETYGVGGFAMAAAPAIVPLVGGTVAEALNYSKEMLEITTKENPNVTIPVLDFMGIPTGIDVLKVLETGMLPVINTAIAHKEPGIGMIGAGLTNPPANVFNEALKALVATIN”, the protein production result is “not failed”.
For the sequence “PTPKTELVQKFRVQYLGMLPVDRPVGMDTLNSAIENLMTSSSKEDWPSVNMNVADATVTVISEKNEEEVLVECRVRFLSFMGVGKDVHTFAFIMDTGNQRFECHVFWCEPNAANVSEAVQAACSGPSSGIEGRGSSGSSGSSGSSGDAAVTPEERHLSKMQQNGYENPTYKFFEQMQN”, the protein production result was “not failed”.
To “PVPGIRCRDAFSAASGIIDKMACVPELAVSEISAPRIVSSLAGDGHALFVANSMPARDMDLYAAPVAQKPLQVALNRGVSGIDGIISTAAGFSAGLGKPTTLLIGDISFLHDLNALCLLNHPWNPLIVIVLNNHGGSIFSFLPIASQTDRLDECFATPQNFSIESAARTFGIDYACPETNGDFTQLYAEALTTKKSLIIEIRSDREKNLLLHRSLKARLDPVFEKADC” belongs “failed”; to “QAIHNDKSLLSPFSELNTDNRTKREESGSTFKEQKGGEFSKLLKQSINELNNTQEQSDKALADMATGQIKDLHQAAIAIGKAETSMKLMLEVRNKAISAYKELLRTQI”, “failed”.
For the sequence “QAQITGRPEWIWLALGTALMGLGTLYFLVKGMGVSDPDAKKFYAITTLVPAIAFTMYLSMLLGYGLTMVPFGGEQNPIYWARYADWLFTTPLLLLDLALLVDADQGTILALVGADGIMIGTGLVGALTKVYSYRFVWWAISTAAMLYILYVLFFGFTSKAESMRPEVASTFKVLRNVTVVLWSAYPVVWLIGSEGAGIVPLNIETLLFMVLDVSAKVGFGLILLRSRAIFGEAEAPEPSAGDGAAATSD”, the protein production entry is reported as “failed”.
With “QDKKEQFKQLFQIVEQSFGRPLSPYEIETLNQWIDVDHHDLSVIQAALDEALSQNKLSFKYIDRILLNWKKNNV”, the protein production entry was “not failed”.
Turning to “QDVLRGTLNLYCSVTAAYSHLPQLLERFRQEHPFVEIALTTGDAANALAEIQQNRADIAIAALPDPFPATLHFAKIDDVPLSLIAPTMRCAVQQQISQTQIDWARVPFIIPDHGPGRRRADNWFKQMGISPNIYAQVSGQEAIASMVALG”, the protein production result is “failed”.
As for “QESVEDSLATVKVVLIPVGQEIVIPFKVDTILKYLKDHFSHLLGIPHSVLQIRYSGKILKNNETLVQHGVKPQEIVQVEIFSTNPDLYPVRRIDGLTDVSQIITV”, the protein production result is recorded as “not failed”.
As for “QGEEMNRSQEVTRDEESTRSEEVTREEMAAAGLTVTVTHSNEKHDLHVTSQQGSSEPVVQDLAQVVEEVIGVPQSFQKLIFKGKSLKEMETPLSALGIQDGCRVMLIGKKNSPQEEV”, the protein production result is reported as “failed”.
Consider “QGHWFAIHSGTLGIMVNVDALGGLPVPQSWADLLKPEYKGMVGYLDPSSAFVGYVSAVAINQAMGGSLDNFGPAIDYFQKLAKNSPIVPKQTAYARALSGELPILVDYDFNAYRARYKDKANVAFVIPKEGTIGVPYVMSMVAKAPHRANAEKVLDFVLSDAGQALWAKAYLRPVR”, for which the protein production entry is given as “failed”.
Consider “QHTEERELKKRLMNTARTVSEMTEVKEALARKKQTEAVRHAVEEIRMINEADYIVVMDMNHIRYTHPVSTSIGKKSEGADEEAAFAEHIYFSEAKGEIGTAVRAFYPVKDQDLNQIGVVLVGKTLPGIAD”, for which the protein production result is on record as “failed”.
For “QIKIRKATKEDWEKIYQLYNSLSDEDLYLRFFHLYRITEEDAKKIASNEDHVTFLAEVDGKVVGEASLHKDGEFSLVVHRNYRTLGIGTLLVKTLIEEAKKSGLSTVKFYTLPENTPMIKIGRKLGFKMRFYEDEVYGEMRL”, the protein production result is on record as “not failed”.
In the case of “QKQYWVCNSSDASISYTYCDKMQYPISINVNPCIELKGSKGLLHIFYIPRRDLKQLYFNLYITVNTMNLPKRKEVICRGSDDDYSFCRALKGETVNTTISFSFKGIKFSKGKYKCVVEAISGSPEEMLFCLEFVILHQPNSN”, the protein production result is “failed”.
Consider “QKVKTIFPHTAGNNKTLLSFAQGDVLTLLIPEEKDGWLYGEHDTTKARGWFPSSYTKLL”, for which the protein production result was “not failed”.
As for “QKYQALLANNVENTAKEALHQLAYTGREYNNIQDQIETISDLLGHSQSLYDYLREPSKANLTILENMWSSVARNQKLYKQIRFLDTSGTEKVRIKYDFKTSIAGPSLILRDKSAREYFKYAQSLDNEQISAWGIELERDKGELVYPLSPSLRILMPISVNDVRQGYLVLNVDIEYLSSLLNYSPVRDFHIELVKHKGFYIASPDESRLYGDIIPERSQFNFSNMYPDIWPRVVSEQAGYSYSGEHLIAFSSIKFVSNEPLHLIIDLSNEQLSKRATRDINDLIQES”, the protein production entry is listed as “not failed”.
Consider “QLLEPIRDFEARKCPVHGKTMELFCQTDQTCICYLCMFQEHKNHSTVTVEEAKAEKETE”, for which the protein production entry is recorded as “not failed”.
Then “QLSSVTDSKKKKTILDQIFVWEQNLEQFQMDLFRFRCYLASLQGGELPNPKRLLAFASRPTKVAMGRLGIFSVSSFHALVAARTGETGVRRRTQAM”, with “failed”; and “QNYWAVFDANKETLIVQTCSGLGLTAIDHLYPPHILPLDTDNETLGTTVLQALANSRTFVYDSPEDQDFFDTEKIRQRYEDWVAKLCGNLGYKTRRALFKNMMSVDIWLHNGCLKISPSRHVKLEAWNAIDADDVILSLDNSPEEIGAGLKLALSHC”, with “failed”.
Then “QPTIVLDTDYNIIAANTAYQRQFGVAGKPHVGAKCYRVSHQFAVPCDQAGEHCPMRKAHDSRVPERMLHIHHTPRGPEHVDVELRPIIGQDGTVVAYVERLSSVAVASVQPQQKG”, with “failed”; and “QQMETGDQRFGDLVFRQLAPNVWQHTSYLDMPGFGAVASNGLIVRDGGRVLVVDTAWTDDQTAQILNWIKQEINLPVALAVVTHAHQDKMGGMDALHAAGIATYANALSNQLAPQEGMVAAQHSLTFAANGWVEPATAPNFGPLKVFYPGPGHTSDNITVGIDGTDIAFGGCLIKDSKAKSLGNLGDADTEHYAASARAFGAAFPKASMIVMSHSAPDSRAAITHTARMADKLR”, with “not failed”; and “QQVTEPEETKETLQHLLDDTASGKMVQLTFVGESAEQPLITEMIRNFNVSVNILQGKISQTKDGAYGSLFIHIDGDEEEVQNVIRFINDKQVKAEVITNV”, with “not failed”.
In the case of “QVPKKQTTSKILVRNIPFQANQREIRELFSTFGELKTVRLPKKMTGTGAHRGFGFVDFITKQDAKKAFNALCHSTHLYGRRLVLEWADSEVTVQ”, the protein production result is listed as “not failed”.
Then “QWDITLIGHEDDLSQLSHEKLSKLAACIEYSPYPMVEIDYFGNLTYLNTATKEKFPSIQKDSMAHPLLKDIIPQREDTPIYYLRTREVQIGDKFYEQHIHYPAESQFIRSYIFDITERKVIEQSIHYQAFYDPLTDLPNRFLFKQELGKVLSNVQNQSSVLGLVLLGFRELQSLNDLLG”, with “failed”; and “QYMSYDRNAFGNQVMGQFGNASGSVTSNKIFGFRSDILLQLLNMKISKDHQELNQNQVIQLVPTYLQQLYNEMNNGDPTMYKDLLNLHSNIVHPSGMYMNPLLYANQNPNAAGYNQGTGGVPPMAGGSVAHGPPAAPAP”, with “failed”; and “RAELRGVVRVAASEVVGAEVLPPLVARLRQACPNIVIELMLSNRFQDLLHREADIAVRMVAPQQEQLIARRLGRIELGLHATAAYLTRQGLPATLDDLASHALIGFDSATPLVRRALQAYPRFQREAFAMRTDSDLAQLSLIRAGA”, with “failed”.
To “RALRRRGGDAAAKLAGLVLIAPAPDFTEALMWKGFSPEIRAEIETKGVWHRPSEYGEPYPITKALIEDGRNHLVLDGMIEVGCPVRILQGKQDEDVPWRHAFELAERLPTDDVVLTMIQDGDHRLSRPQDIARMLAAVEE” belongs “failed”.
To “RAVAGWGARPSAAPARRRARSLGVPYIALEDGFLRSFGTGRHFPPLSLVVDRLGIYYDATRESELECLLASSRTLLDGIEDAVPEAMELVRERRLSKYNQGCFLATGVPADGRRRVLVVDQTEGDMSVTLGCAEAATFEAMLAAARAESPGALICVKTHPEVAAGDKSGYLSRVTDDADTVALRHDMNPLALLEQMDRVYVVSSQMGFEALMLDKPVTCFGMPWYAGWGVTDDRQRCERRGRARSVEELFAGAYFHYTRYLDPVLH” belongs “failed”; to “RDVAFTADGTTAYGTLHVPEHRAGQRLRAALLLPGSGPTDRDGNQPPASLPDTLAQLADTLGKDGVATLRFDKYGTGRTGLGTYQDRPEELDYPAFVRQARAGYESLRDQPETDPHALLVVGHSEGAMTGLLLGGTVSPRPAGLALLQPQAIRMLDLVALQLRAQIAEATRQGQFTPEQQRTVNAAVDAAVTALRERRPVDTADLPSPIARLFEAFQGPNARFVRSDDAVYPPDTAFALRPGTKVLLTCGTHDVQVPCDTTNVLTTALRHAHAHGPGRVVLPGVDHLMHDTDHPATLTPPVLDSL”, “failed”; to “REIADNTYIVLGTMTLNDFNEYFETDLESDNVDTIAGFYLTGVGTIPSQEEKEHFEVESNGKHLELINDKVKDGRVTKLKILVSE”, “not failed”.
In the case of “RETYPDAVKICNICHSLLIQGQSCETCGIRMHLPCVAKYFQSNAEPRCPHCNDYWPHEIPK”, the protein production result is “not failed”.
Consider “RFLEDMTIGERREVGTFTFTADAIKTFAAQFDPQPFHLDEEAGKNSLFGGLAASGWHVAAVCMKLMVADAQRESAEAAKRGELVATGGPSPGFRELRWLKPVLAGDTITYYKQVESLRPSDSRPQWGIMQARNTGINQRGEVVFSFLATAFVPRRPNA”, for which the protein production result was “failed”.
On to “RFNPFIHQQDVYVQIDRDGRHLSPGGTEYTLDGYNASGKKEEVTFFAGKELRKNAYLKVKAKGKYVETWEEVKFEDMPDSVQSKLK”, for which the protein production result is given as “not failed”.

For the origin of these results see a protein production outcome set (Wang et al. 2014).
